Assay results: the supplement of paper PMC10567573

B1: FBXO3 (parent)
chain: DEEERRRRVFDVPIRRRRCSRLF
B2: MFF (parent)
chain: YTEGISQRMRVPEKLKVAPPNADL

Variants of: B1
Experiment: protein stability index of a GFP-peptide fusion (GPS, HEK-293T) (PSI 1-6); higher = more stable
Conditions: c terminus: native
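Note: lentivirally expressed fusions sorted by FACS into six bins by GFP to DsRed ratio, PSI derived from sequencing read proportions per bin multiplied by bin number.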

Protein stability index of substitutions, site by site:
D1: Q 1.69 | G 1.91 | I 2.83 | F 1.92 | W 1.8 | L 1.97 | N 2.05 | E 3.14 | C 1.58 | T 2.2 | M 2.97 | V 2.34 | S 1.85 | H 1.87 | Y 2.57 | A 2.65 | K 2.27 | P 2.55
E2: W 2.25 | Q 3.19 | T 1.65 | A 1.49 | I 2.52 | K 1.36 | S 2.21 | D 3.08 | M 1.9 | V 1.95 | G 2.58 | N 3.05 | L 1.45 | H 1.79 | C 1.71 | P 2.15 | F 1.97 | R 2.33

Variants of: B2
Experiment: as above
Conditions: c terminus: a fixed tail appended

Protein stability index of substitutions, site by site:
A22: R 2.77 | K 3.28 | Y 2.56 | P 2.9 | M 2.68 | V 3.09 | T 2.91 | N 2.92 | L 2.39 | C 2.62 | W 2.45 | E 3.33 | F 2.83 | H 2.69 | Q 2.81 | S 2.87 | D 3.34 | G 2.96 | I 2.45
L24: F 2.49 | S 2.86 | I 2.8 | R 2.89 | M 2.91 | T 2.95 | H 3.52 | Q 3.14 | A 3 | G 2.91 | K 3 | V 2.61 | Y 2.6 | E 3.74 | W 2.14 | P 2.92 | D 3.88 | N 3.08 | C 2.87
P20: L 2.24 | S 2.65 | Q 3.44 | D 3.04 | R 2.75 | H 2.69 | M 2.66 | E 3.55 | V 3.06 | T 2.69 | A 2.98 | I 2.75 | K 3.51 | C 2.44 | G 2.91 | Y 2.04 | F 2.01 | W 2.35 | N 3.12
P19: G 2.78 | H 2.54 | R 2.43 | N 2.78 | A 2.51 | V 3.29 | S 2.62 | D 3.37 | I 2.52 | Y 2.33 | Q 2.67 | K 2.71 | M 2.32 | L 3.41 | T 2.51 | W 1.91 | E 2.56 | F 2.44 | C 3.25
N21: T 2.71 | M 2.67 | E 2.87 | I 2.34 | W 2 | Q 2.9 | Y 2.5 | R 3.19 | G 2.72 | S 3.24 | H 2.91 | K 2.99 | L 2.09 | A 3.21 | D 3.1 | C 2.33 | V 3.09 | F 2.25
A18: H 3.88 | V 2.72 | L 2.88 | P 2.89 | R 2.67 | E 3.03 | S 2.85 | K 2.59 | Y 2.59 | W 2.23 | G 2.54 | M 2.89 | Q 3.24 | F 2.2 | N 2.78 | D 3.19 | T 3.03 | C 2.77 | I 3.15
D23: Q 2.36 | I 2.29 | K 2.63 | C 2.47 | T 2.38 | E 2.36 | W 2.23 | N 2.65 | R 2.95 | L 2.02 | S 2.11 | V 2.12 | G 2.72 | Y 2.57 | H 2.95 | M 2.51 | F 2.47 | A 2.34
